Measured values published in paper PMC11555622.

What was measured:
[1] = domain-selective surface biotinylation, apical vs basolateral; settings: glycan lost
[2] = confocal microscopy, polarized MDCK; settings: glycan lost
[3] = surface biotinylation, amount of DUOX1 at cell surface; settings: glycan lost; control: wild type DUOXA1
[4] = immunoblot of HEK293 lysate; settings: glycan lost
[5] = surface biotinylation, amount of DUOX2 at cell surface; settings: glycan lost; control: wild type DUOXA2

| Protein | localisation_or_trafficking ([1]; control: wild type DUOXA1) | localisation_or_trafficking ([2]; control: wild type DUOXA1) | localisation_or_trafficking [3] | expression_or_secretion ([4]; control: wild type DUOXA1) | localisation_or_trafficking ([1]; control: wild type DUOXA2) | localisation_or_trafficking ([2]; control: wild type DUOXA2) | expression_or_secretion ([4]; control: wild type DUOXA2) | localisation_or_trafficking [5] |
| --- | --- | --- | --- | --- | --- | --- | --- | --- |
| DUOXA1: N84Q/N109Q/N121Q (protein) parent chain: MATLGHTFPFYAGPKPTFPMDTTLASIIMIFLTALATFIVILPGIRGKTRLFWLLRVVTSLFIGAAILAVNFSSEWSVGQVSTNTSYKAFSSEWISADIGLQVGLGGVNITLTGTPVQQLNETINYNEEFTWRLGENYAEEYAKALEKGLPDPVLYLAEKFTPRSPCGLYRQYRLAGHYTSAMLWVAFLCWLLANVMLSMPVLVYGGYMLLATGIFQLLALLFFSMATSLTSPCPLHLGASVLHTHHGPAFWITLTTGLLCVLLGLAMAVAHRMQPHRLKAFFNQSVDEDPMLEWSPEEGGLLSPRYRSMADSPKSQDIPLSEASSTKAYCKEAHPKDPDCAL | changes | changes | decreases | no change |  |  |  |  |
| DUOXA2: N84Q/N109Q/N121Q (protein) parent chain: MTLWNGVLPFYPQPRHAAGFSVPLLIVILVFLALAASFLLILPGIRGHSRWFWLVRVLLSLFIGAEIVAVHFSAEWFVGTVNTNTSYKAFSAARVTARVRLLVGLEGINITLTGTPVHQLNETIDYNEQFTWRLKENYAAEYANALEKGLPDPVLYLAEKFTPSSPCGLYHQYHLAGHYASATLWVAFCFWLLSNVLLSTPAPLYGGLALLTTGAFALFGVFALASISSVPLCPLRLGSSALTTQYGAAFWVTLATGVLCLFLGGAVVSLQYVRPSALRTLLDQSAKDCSQERGGSPLILGDPLHKQAALPDLKCITTNL |  |  |  |  | no change | no change | decreases | decreases |
